Measured values reported in patent US20240010684A1 (Bayer, published 2024).
Bridges are numbered along the chain shown (N, C = ends).

T1: recombinant human MASP1 (amino acids 297-699, C-terminal His Tag) (human, UniProt P48740 297-699)
T1 sequence: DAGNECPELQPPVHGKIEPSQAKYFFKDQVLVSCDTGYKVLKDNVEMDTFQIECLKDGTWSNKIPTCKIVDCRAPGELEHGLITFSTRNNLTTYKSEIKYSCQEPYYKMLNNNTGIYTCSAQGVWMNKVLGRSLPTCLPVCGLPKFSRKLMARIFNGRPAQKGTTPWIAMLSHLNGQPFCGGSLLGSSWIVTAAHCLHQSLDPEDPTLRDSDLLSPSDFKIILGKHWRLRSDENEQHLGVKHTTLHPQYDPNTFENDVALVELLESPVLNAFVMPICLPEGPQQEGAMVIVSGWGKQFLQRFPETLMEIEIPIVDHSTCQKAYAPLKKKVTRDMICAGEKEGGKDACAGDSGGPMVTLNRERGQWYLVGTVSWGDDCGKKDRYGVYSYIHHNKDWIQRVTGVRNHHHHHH

T2: recombinant rat MASP1 (amino acids 302-704, C-terminal His Tag) (rat, UniProt Q8CHN8 302-704)
T2 sequence: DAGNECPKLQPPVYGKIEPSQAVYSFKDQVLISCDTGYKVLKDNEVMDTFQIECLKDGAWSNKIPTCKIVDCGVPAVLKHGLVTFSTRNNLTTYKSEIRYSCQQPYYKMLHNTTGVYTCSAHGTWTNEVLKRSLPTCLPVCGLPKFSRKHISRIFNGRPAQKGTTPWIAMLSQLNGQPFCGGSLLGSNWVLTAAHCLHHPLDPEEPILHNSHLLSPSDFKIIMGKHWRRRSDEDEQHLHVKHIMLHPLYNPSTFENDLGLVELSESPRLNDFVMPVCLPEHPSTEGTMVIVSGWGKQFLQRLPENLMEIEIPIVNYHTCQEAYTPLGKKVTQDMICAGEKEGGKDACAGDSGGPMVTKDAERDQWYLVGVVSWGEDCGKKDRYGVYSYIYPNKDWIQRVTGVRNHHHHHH


Experiments:
Assay in all cases: cell-based or functional assay
[1] = molecular target: T1, recombinant human MASP1 (amino acids …)
[2] = molecular target: recombinant human MASP2 (amino acids 297-686, C-terminal His Tag) (human, UniProt O00187 297-686)
[3] = molecular target: T2, recombinant rat MASP1 (amino acids …)
[4] = molecular target: recombinant rat MASP2 (amino acids 296-685, C-terminal His Tag) (rat, UniProt Q9JJS8 296-685)
Sequence of recombinant rat MASP2 (amino acids 296-685, C-terminal His Tag) (Q9JJS8 other isoform, or with tags, fused parts or gaps limits assumed): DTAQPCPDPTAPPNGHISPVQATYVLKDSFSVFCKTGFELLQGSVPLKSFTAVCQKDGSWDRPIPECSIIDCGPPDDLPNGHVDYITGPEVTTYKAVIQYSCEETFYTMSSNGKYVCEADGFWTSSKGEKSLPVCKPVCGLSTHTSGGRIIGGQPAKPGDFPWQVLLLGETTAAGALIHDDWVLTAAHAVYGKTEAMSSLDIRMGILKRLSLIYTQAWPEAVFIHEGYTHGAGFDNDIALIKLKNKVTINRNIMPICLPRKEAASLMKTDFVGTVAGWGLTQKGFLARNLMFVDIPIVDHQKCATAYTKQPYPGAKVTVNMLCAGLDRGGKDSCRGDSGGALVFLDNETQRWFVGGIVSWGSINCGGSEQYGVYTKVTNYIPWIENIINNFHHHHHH

Sequence of recombinant human MASP2 (amino acids 297-686, C-terminal His Tag) (O00187 other isoform, or with tags, fused parts or gaps limits assumed): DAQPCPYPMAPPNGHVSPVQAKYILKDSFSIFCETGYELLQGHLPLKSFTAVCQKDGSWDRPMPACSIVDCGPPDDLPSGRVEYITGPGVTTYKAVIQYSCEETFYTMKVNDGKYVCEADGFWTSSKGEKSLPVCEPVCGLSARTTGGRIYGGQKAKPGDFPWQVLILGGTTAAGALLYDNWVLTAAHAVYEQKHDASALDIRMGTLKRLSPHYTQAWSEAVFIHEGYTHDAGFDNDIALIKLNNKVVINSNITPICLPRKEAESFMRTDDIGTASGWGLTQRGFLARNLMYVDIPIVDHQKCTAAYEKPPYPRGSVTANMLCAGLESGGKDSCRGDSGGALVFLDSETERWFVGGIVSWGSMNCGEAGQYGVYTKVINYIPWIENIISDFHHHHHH

Binder	human MASP1 IC50 [1] [nM]	human MASP2 IC50 [2] [nM]	rat MASP1 IC50 [3] [nM]	rat MASP2 IC50 [4] [nM]
cyclo(PFCIPPISKTCRGD) (disulfide 3-11; SMILES CC[C@H](C)[C@@H]1NC(=O)[C@@H]2CCCN2C(=O)[C@@H]2CCCN2C(=O)[C@H]([C@@H](C)CC)NC(=O)[C@@H]2CSSC[C@H](NC(=O)[C@H]([C@@H](C)O)NC(=O)[C@H](CCCCN)NC(=O)[C@H](CO)NC1=O)C(=O)N[C@@H](CCCNC(=N)N)C(=O)NCC(=O)N[C@@H](CC(=O)O)C(=O)N1CCC[C@H]1C(=O)N[C@@H](Cc1ccccc1)C(=O)N2) [Reference peptide 12: P**FC+IPPISKTC+RGD**]	4800	5000	1000	1000
cyclo(GICSRSLPPICIPD) (disulfide 3-11; SMILES CC[C@H](C)[C@@H]1NC(=O)CNC(=O)[C@H](CC(=O)O)NC(=O)[C@@H]2CCCN2C(=O)[C@H]([C@@H](C)CC)NC(=O)[C@@H]2CSSC[C@H](NC1=O)C(=O)N[C@@H](CO)C(=O)N[C@@H](CCCNC(=N)N)C(=O)N[C@@H](CO)C(=O)N[C@@H](CC(C)C)C(=O)N1CCC[C@H]1C(=O)N1CCC[C@H]1C(=O)N[C@@H]([C@@H](C)CC)C(=O)N2) [Bicyclic SFMI-1: G**IC+SRSLPPIC+IPD**]	145	895	1000	232
